Read-outs that look alike come from different tables or passages of the source.
What was measured:
Assay in all cases: FRET
[1] = target: OmSMAX1-D1M domain (Orobanche minor OF MAX2 1, D1M domain) (Orobanche minor)
[2] = target: OmSMAX1-D1M domain (Orobanche minor OF MAX2 1, D1M domain) (Orobanche minor); remark: listed apart in the source
[3] = target: OmSMAX1-D1M domain (Orobanche minor OF MAX2 1, D1M domain) (Orobanche minor); remark: listed apart in the source
[4] = target: OmSMAX1-D1M domain (Orobanche minor OF MAX2 1, D1M domain) (Orobanche minor); remark: listed apart in the source

Substance	EC50 [1] [µM]	EC50 [2] [µM]	EC50 [3] [µM]	EC50 [4] [µM]
OmKAI2d3 (Orobanche minor divergent 2 receptor d3)	231	0.18	–	–
OmKAI2d4 (Orobanche minor divergent 2 receptor d4)	0.15	–	231	–
OmKAI2d9 (Orobanche minor divergent 2 receptor d9)	202	–	–	–
OmKAI2d10 (Orobanche minor divergent 2 receptor d10)	133	–	–	209

Reference: publication doi:10.64898/2025.12.31.697154
